In patent publication US20240239878A1 (SHANGHAI QILU PHARMACEUTICAL RESEARCH AND DEVELOPMENT CENTRE, published 2024):

T1: human DLL3 antigen protein (Kactus Biosystems, Cat. No. DLL-HM103) (human, UniProt Q9NYJ7 27-492)
T1 sequence: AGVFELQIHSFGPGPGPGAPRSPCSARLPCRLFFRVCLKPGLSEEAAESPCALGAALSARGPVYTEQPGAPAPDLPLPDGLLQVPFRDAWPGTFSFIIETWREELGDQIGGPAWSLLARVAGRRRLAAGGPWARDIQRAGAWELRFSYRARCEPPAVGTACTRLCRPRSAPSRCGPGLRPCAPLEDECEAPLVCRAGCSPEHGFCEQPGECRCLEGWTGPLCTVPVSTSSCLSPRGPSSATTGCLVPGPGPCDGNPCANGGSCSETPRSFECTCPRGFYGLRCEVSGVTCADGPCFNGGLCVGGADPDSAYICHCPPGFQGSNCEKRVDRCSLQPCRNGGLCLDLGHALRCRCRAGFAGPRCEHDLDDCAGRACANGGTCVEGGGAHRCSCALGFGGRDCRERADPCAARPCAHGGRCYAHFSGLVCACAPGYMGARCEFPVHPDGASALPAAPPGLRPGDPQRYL

T2: Cynomolgus monkey DLL3 antigen protein (Kactus Biosystems, Cat. No. CM103) (Cynomolgus monkey, UniProt Q9NYJ7 27-490 (human entry))
T2 construct: also called cyno DLL3
T2 chain: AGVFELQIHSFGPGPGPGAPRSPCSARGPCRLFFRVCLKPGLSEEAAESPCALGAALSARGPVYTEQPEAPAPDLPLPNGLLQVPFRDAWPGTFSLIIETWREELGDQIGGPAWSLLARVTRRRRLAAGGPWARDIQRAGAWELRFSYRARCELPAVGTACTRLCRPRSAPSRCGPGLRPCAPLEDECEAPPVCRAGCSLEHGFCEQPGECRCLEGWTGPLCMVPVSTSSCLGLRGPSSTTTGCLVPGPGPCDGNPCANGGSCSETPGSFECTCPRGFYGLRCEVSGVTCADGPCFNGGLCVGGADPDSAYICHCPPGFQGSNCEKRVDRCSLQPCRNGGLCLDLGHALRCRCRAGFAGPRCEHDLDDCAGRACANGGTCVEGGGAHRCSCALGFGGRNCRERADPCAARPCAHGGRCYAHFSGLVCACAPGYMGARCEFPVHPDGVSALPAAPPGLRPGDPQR

T3: human DLL3 on SHP-77 cells (human, UniProt Q9NYJ7 27-618)
T3 construct: also called DLL3-expressing cells (SHP-77)
T3 sequence: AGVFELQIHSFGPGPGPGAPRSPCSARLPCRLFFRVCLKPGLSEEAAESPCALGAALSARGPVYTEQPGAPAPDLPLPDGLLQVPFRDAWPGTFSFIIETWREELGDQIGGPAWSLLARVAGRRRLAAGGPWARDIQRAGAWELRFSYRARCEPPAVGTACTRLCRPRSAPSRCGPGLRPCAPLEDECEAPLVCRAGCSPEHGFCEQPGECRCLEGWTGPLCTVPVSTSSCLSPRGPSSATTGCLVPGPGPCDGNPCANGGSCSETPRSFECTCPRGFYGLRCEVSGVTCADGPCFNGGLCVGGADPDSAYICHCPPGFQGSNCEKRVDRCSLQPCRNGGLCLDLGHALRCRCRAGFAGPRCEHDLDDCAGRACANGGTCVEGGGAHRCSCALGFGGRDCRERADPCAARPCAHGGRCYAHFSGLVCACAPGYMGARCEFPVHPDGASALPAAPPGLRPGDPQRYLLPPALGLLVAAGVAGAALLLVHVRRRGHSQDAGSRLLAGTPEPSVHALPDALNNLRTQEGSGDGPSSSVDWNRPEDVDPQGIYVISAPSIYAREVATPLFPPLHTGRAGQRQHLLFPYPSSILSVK


What was measured:
[1] = molecular target: T1, human DLL3 antigen protein (Kactus …); experiment: SPR (Biacore 8K), antibody captured on anti-human Fc, DLL3 in solution
Method: The affinity and kinetic properties of the humanized anti-DLL3 antibody to human DLL3 were analyzed using a Biacore 8K instrument. CM5 chips were activated with EDC and NHS, followed by immobilization of anti-human Fc murine mAb and blocked with ethanolamine.
Human DLL3 was diluted two-fold serially to serial concentrations (100 nM-0.39 nM) and associated for 90 s and dissociated for 600 s at a flow rate of 50 μL/min.
After completion of each round of the experiment, the captured antibody was removed together with the antigen by washing with a 3M MgCl₂ solution at a flow rate of 30 μL/min for 30 s to complete the regeneration of the chip. The raw data were analyzed using Biacore Insight Evaluation Software (3.0.12.15655) software and fitted with a (1:1) Langmuir model with.

[2] = molecular target: T1, human DLL3 antigen protein (Kactus …); experiment: affinity assay with human DLL3 antigen protein (kinetics; method not restated, Biacore as in Example 18 implied)
[3] = molecular target: T2, Cynomolgus monkey DLL3 antigen protein …; experiment: affinity assay with Cynomolgus monkey DLL3 antigen protein (kinetics; method not restated, Biacore as in Example 18 implied)
[4] = molecular target: T3, human DLL3 on SHP-77 cells; experiment: flow cytometry, SHP-77 cells
[5] = molecular target: T1, human DLL3 antigen protein (Kactus …); experiment: affinity assay with human DLL3 antigen protein (kinetics; method not restated, Biacore as in Example 10 implied)

| Kd [1] | koff [1] | kon [1] | Kd [2] | koff [2] | kon [2] | Kd [3] | koff [3] | kon [3] | EC50 [4] | Top MFI [4] | Kd [5] | koff [5] | kon [5] | Binder |
| --- | --- | --- | --- | --- | --- | --- | --- | --- | --- | --- | --- | --- | --- | --- |
| 0.576 nM | 0.00018 s⁻¹ | 313000 M⁻¹ s⁻¹ | 0.739 nM | 0.000134 s⁻¹ | 181000 M⁻¹ s⁻¹ | 0.143 nM | 3.16e-05 s⁻¹ | 221000 M⁻¹ s⁻¹ | – | – | – | – | – | H2-39E2D11 mouse hybridoma-derived humanized anti-DLL3 antibody (antibody, V domains shown) VH: QVQLVQSGAEVKKPGASVKVSCKASGYTFISYWITWVRQAPGQGLEWMGDIYPGSGSTTNYNEKFKSRVTMTRDTSTSTVYMELSSLRSEDTAVYYCARETTVGGAYAMDYWGQGTLVTVSS VL: EIVLTQSPATLSLSPGERATLSCRASQSINNNLHWYQQKPGQAPRLLIKYVSQSISGIPARFSGSGSGTDFTLTISSLEPEDFAVYYCQQTNSWPLTFGGGTKLEIK |
| – | – | – | – | – | – | – | – | – | 0.068 nM | 1080 MFI | 0.45 nM | 0.000614 s⁻¹ | 1.36e+06 M⁻¹ s⁻¹ | hDLL3-3-1 camelid-derived humanized anti-DLL3 antibody (antibody, human IgG1, V domains shown) VH: EVQLVESGGGLVQPGGSLRLSCAASTYTISSGYMGWFRQAPGKEREGVAAIYIGGSTTLYADSVKGRFTISRDNSKNTLYLQMNSLRAEDTAVYYCAAQLRPNSAYHPLDGRKYNYWGQGTLVTVSS |
